# Assay results as given in the supplement of paper PMC11246515.
# ± gives the standard deviation of the averaged measurements.
# Assay: total protein half-life in vivo (active degradation + dilution); higher = more stable protein
# [1] = E. coli NCM3722 delta-clpP delta-lon delta-hslV, growth: N-lim chemostat, doubling time 6 h
# [2] = E. coli NCM3722 delta-clpP, growth: N-lim chemostat, doubling time 6 h
# [3] = E. coli NCM3722 delta-hslV, growth: N-lim chemostat, doubling time 6 h
# [4] = E. coli NCM3722 delta-lon, growth: N-lim chemostat, doubling time 6 h
# [5] = E. coli NCM3722 delta-smpB, growth: N-lim chemostat, doubling time 6 h
# [6] = wild type E. coli NCM3722, growth: C-lim chemostat, doubling time 3 h
# [7] = wild type E. coli NCM3722, growth: C-lim chemostat, doubling time 6 h
# [8] = wild type E. coli NCM3722, growth: C-lim chemostat, doubling time 12 h
# [9] = wild type E. coli NCM3722, growth: N-lim chemostat, doubling time 6 h
# [10] = wild type E. coli NCM3722, growth: N-lim chemostat, doubling time 12 h
# [11] = wild type E. coli NCM3722, growth: P-lim chemostat, doubling time 6 h
# [12] = wild type E. coli NCM3722, growth: P-lim chemostat, doubling time 12 h
Sequence,total protein half-life in vivo [1],total protein half-life in vivo [2],total protein half-life in vivo [3],total protein half-life in vivo [4],total protein half-life in vivo [5],total protein half-life in vivo [6],total protein half-life in vivo [7],total protein half-life in vivo [8],total protein half-life in vivo [9],total protein half-life in vivo [10],total protein half-life in vivo [11],total protein half-life in vivo [12]
MTENIHKHRILILDFGSQYTQLVARRVRELGVYCELWAWDVTEAQIRDFNPSGIILSGGPESTTEENSPRAPQYVFEAGVPVFGVCYGMQTMAMQLGGHVEASNEREFGYAQVEVVNDSALVRGIEDALTADGKPLLDVWMSHGDKVTAIPSDFITVASTESCPFAIMANEEKRFYGVQFHPEVTHTRQGMRMLERFVRDICQCEALWTPAKIIDDAVARIREQVGDDKVILGLSGGVDSSVTAMLLHRAIGKNLTCVFVDNGLLRLNEAEQVLDMFGDHFGLNIVHVPAEDRFLSALAGENDPEAKRKIIGRVFVEVFDEEALKLEDVKWLAQGTIYPDVIESAASATGKAHVIKSHHNVGGLPKEMKMGLVEPLKELFKDEVRKIGLELGLPYDMLYRHPFPGPGLGVRVLGEVKKEYCDLLRRADAIFIEELRKADLYDKVSQAFTVFLPVRSVGVMGDGRKYDWVVSLRAVETIDFMTAHWAHLPYDFLGRVSNRIINEVNGISRVVYDISGKPPATIEWE,5.07 ± 0.67 h,4.31 ± 0.18 h,4.02 ± 0.45 h,4.39 ± 0.049 h,4.28 ± 0.17 h,3.24 ± 0.23 h,5.93 ± 0.12 h,9.65 ± 0.23 h,4.17 ± 0.46 h,6.57 ± 0.082 h,6.09 ± 0.26 h,12.3 ± 0.98 h
MAEHLMSDVPFWQSKTLDEMSDAEWESLCDGCGQCCLHKLMDEDTDEIYFTNVACRQLNIKTCQCRNYERRFEFEPDCIKLTRENLPTFEWLPMTCAYRLLAEGKDLPAWHPLLTGSKAAMHGERISVRHIAVKESEVIDWQDHILNKPDWAQ [P0A8L5],3.88 ± 0.37 h,,,,,,1.17 h,,,,,1.97 h
MSLSLWQQCLARLQDELPATEFSMWIRPLQAELSDNTLALYAPNRFVLDWVRDKYLNNINGLLTSFCGADAPQLRFEVGTKPVTQTPQAAVTSNVAAPAQVAQTQPQRAAPSTRSGWDNVPAPAEPTYRSNVNVKHTFDNFVEGKSNQLARAAARQVADNPGGAYNPLFLYGGTGLGKTHLLHAVGNGIMARKPNAKVVYMHSERFVQDMVKALQNNAIEEFKRYYRSVDALLIDDIQFFANKERSQEEFFHTFNALLEGNQQIILTSDRYPKEINGVEDRLKSRFGWGLTVAIEPPELETRVAILMKKADENDIRLPGEVAFFIAKRLRSNVRELEGALNRVIANANFTGRAITIDFVREALRDLLALQEKLVTIDNIQKTVAEYYKIKVADLLSKRRSRSVARPRQMAMALAKELTNHSLPEIGDAFGGRDHTTVLHACRKIEQLREESHDIKEDFSNLIRTLSS,5.49 ± 0.27 h,4.24 ± 0.24 h,2.83 ± 0.047 h,3.85 ± 0.16 h,2.8675 ± 0.00078 h,2.183 ± 0.021 h,3.897 ± 0.019 h,5.25 ± 0.15 h,2.94 ± 0.26 h,3.79 ± 0.058 h,3.61 ± 0.12 h,6.1 ± 0.38 h
MKVLVTGATSGLGRNAVEFLCQKGISVRATGRNEAMGKLLEKMGAEFVPADLTELVSSQAKVMLAGIDTLWHCSSFTSPWGTQQAFDLANVRATRRLGEWAVAWGVRNFIHISSPSLYFDYHHHRDIKEDFRPHRFANEFARSKAASEEVINMLSQANPQTRFTILRPQSLFGPHDKVFIPRLAHMMHHYGSILLPHGGSALVDMTYYENAVHAMWLASQEACDKLPSGRVYNITNGEHRTLRSIVQKLIDELNIDCRIRSVPYPMLDMIARSMERLGRKSAKEPPLTHYGVSKLNFDFTLDITRAQEELGYQPVITLDEGIEKTAAWLRDHGKLPR,6.23 ± 0.075 h,,6.37 ± 0.24 h,5.88 ± 0.54 h,5.48 ± 0.29 h,2.62 ± 0.47 h,,9.95 ± 0.97 h,6.14 ± 0.16 h,12.6 ± 0.48 h,5.6 ± 0.61 h,9.9 ± 0.57 h
MLLNMMCGRQLSAISLCLAVTFAPLFNAQADEPEVIPGDSPVAVSEQGEALPQAQATAIMAGIQPLPEGAAEKARTQIESQLPAGYKPVYLNQLQLLYAARDMQPMWENRDAVKAFQQQLAEVAIAGFQPQFNKWVELLTDPGVNGMARDVVLSDAMMGYLHFIANIPVKGTRWLYSSKPYALATPPLSVINQWQLALDKGQLPTFVAGLAPQHPQYAAMHESLLALLCDTKPWPQLTGKATLRPGQWSNDVPALREILQRTGMLDGGPKITLPGDDTPTDAVVSPSAVTVETAETKPMDKQTTSRSKPAPAVRAAYDNELVEAVKRFQAWQGLGADGAIGPATRDWLNVTPAQRAGVLALNIQRLRLLPTELSTGIMVNIPAYSLVYYQNGNQVLDSRVIVGRPDRKTPMMSSALNNVVVNPPWNVPPTLARKDILPKVRNDPGYLESHGYTVMRGWNSREAIDPWQVDWSTITASNLPFRFQQAPGPRNSLGRYKFNMPSSEAIYLHDTPNHNLFKRDTRALSSGCVRVNKASDLANMLLQDAGWNDKRISDALKQGDTRYVNIRQSIPVNLYYLTAFVGADGRTQYRTDIYNYDLPARSSSQIVSKAEQLIR,5.42 ± 0.21 h,5.32 ± 1 h,5.764 ± 0.032 h,5.39 ± 0.3 h,4.989 ± 0.017 h,3.03 ± 0.053 h,6.5 ± 0.17 h,12.2 ± 1.1 h,5.57 ± 0.65 h,8.84 ± 0.75 h,4.75 ± 0.52 h,9.2 ± 1.2 h
MHRILAEKSVNITELRKNPAKYFIDQPVAVLSNNRPAGYLLSASAFEALMDMLAEQEEKKPIKARFRPSAARLEEITRRAEQYLNDMTDDDFNDFKE,6.12 ± 0.86 h,3.91 h,,,,,,,,,,4.58 h
MNAIISPDYYYVLTVAGQSNAMAYGEGLPLPDREDAPHPRIKQLARFAHTHPGGPPCHFNDIIPLTHCPHDVQDMQGYHHPLATNHQTQYGTVGQALHIARKLLPFIPDNAGILIVPCCRGGSAFTAGSEGTYSERHGASHDACRWGTDTPLYQDLVSRTRAALAKNPQNKFLGACWMQGEFDLMTSDYASHPQHFNHMVEAFRRDLKQYHSQLNNITDAPWFCGDTTWYWKENFPHSYEAIYGNYQNNVLANIIFVDFQQQGERGLTNAPDEDPDDLSTGYYGSAYRSPENWTTALRSSHFSTAARRGIISDRFVEAILQFWRER,5.07 ± 0.92 h,3.59 ± 0.15 h,3.413 ± 0.026 h,,3.46 ± 0.15 h,3.16 h,,8.77 ± 0.83 h,3.38 h,,5.15 ± 0.32 h,13.2 h
MAFKIWQIGLHLQQQEAVAVAIVRGAKECFLQRWWRLPLENDIIKDGRIVDAQQLAKTLLPWSRELPQRHHIMLAFPASRTLQRSFPRPSMSLGEREQTAWLSGTMARELDMDPDSLRFDYSEDSLSPAYNVTAAQSKELATLLTLAERLRVHVSAITPDASALQRFLPFLPSHQQCLAWRDNEQWLWATRYSWGRKLAVGMTSAKELAAALSVDPESVAICGEGGFDPWEAVSVRQPPLPPPGGDFAIALGLALGKAY,4.83 h,3.81 h,2.84 h,,2.82 ± 0.24 h,,,11.7 ± 1.8 h,,,3.857 ± 0.0092 h,8.02 h
MYLSKVIIARAWSRDLYQLHQGLWHLFPNRPDAARDFLFHVEKRNTPEGCHVLLQSAQMPVSTAVATVIKTKQVEFQLQVGVPLYFRLRANPIKTILDNQKRLDSKGNIKRCRVPLIKEAEQIAWLQRKLGNAARVEDVHPISERPQYFSGDGKSGKIQTVCFEGVLTINDAPALIDLVQQGIGPAKSMGCGLLSLAPL,5.96 ± 0.57 h,,,,,1.61 h,,,,,,
MFIRAPNFGRKLLLTCIVAGVMIAILVSCLQFLVAWHKHEVKYDTLITDVQKYLDTYFADLKSTTDRLQPLTLDTCQQANPELTARAAFSMNVRTFVLVKDKKTFCSSATGEMDIPLNELIPALDINKNVDMAILPGTPMVPNKPAIVIWYRNPLLKNSGVFAALNLNLTPSLFYSSRQEDYDGVALIIGNTALSTFSSRLMNVNELTDMPVRETKIAGIPLTVRLYADDWTWNDVWYAFLLGGMSGTVVGLLCYYLMSVRMRPGREIMTAIKREQFYVAYQPVVDTQALRVTGLEVLLRWRHPVAGEIPPDAFINFAESQKMIVPLTQHLFELIARDAAELEKVLPVGVKFGINIAPDHLHSESFKADIQKLLTSLPAHHFQIVLEITERDMLKEQEATQLFAWLHSVGVEIAIDDFGTGHSALIYLERFTLDYLKIDRGFINAIGTETITSPVLDAVLTLAKRLNMLTVAEGVETPEQARWLSERGVNFMQGYWISRPLPLDDFVRWLKKPYTPQW,6.645 ± 0.021 h,6.81 ± 0.3 h,6.17 ± 0.16 h,6.55 ± 1 h,5.84 ± 0.17 h,,5.92 ± 1.2 h,10.5 ± 0.13 h,5.91 ± 0.13 h,11.2 ± 0.95 h,5.7999 ± 0.0026 h,10.4 ± 0.3 h
MSVFSLKIDIADNKFFNGETSPLFSQSQAKLARQFHQKIAGYRPTPLCALDDLANLFGVKKILVKDESKRFGLNAFKMLGGAYAIAQLLCEKYHLDIETLSFEHLKNAIGEKMTFATTTDGNHGRGVAWAAQQLGQNAVIYMPKGSAQERVDAILNLGAECIVTDMNYDDTVRLTMQHAQQHGWEVVQDTAWEGYTKIPTWIMQGYATLADEAVEQMREMGVTPTHVLLQAGVGAMAGGVLGYLVDVYSPQNLHSIIVEPDKADCIYRSGVKGDIVNVGGDMATIMAGLACGEPNPLGWEILRNCATQFISCQDSVAALGMRVLGNPYGNDPRIISGESGAVGLGVLAAVHYHPQRQSLMEKLALNKDAVVLVISTEGDTDVKHYREVVWEGKHAVAP,,,,,,,4.2 h,,,,,
MQKDALNNVHITDEQVLMTPEQLKAAFPLSLQQEAQIADSRKSISDIIAGRDPRLLVVCGPCSIHDPETALEYARRFKALAAEVSDSLYLVMRVYFEKPRTTVGWKGLINDPHMDGSFDVEAGLQIARKLLLELVNMGLPLATEALDPNSPQYLGDLFSWSAIGARTTESQTHREMASGLSMPVGFKNGTDGSLATAINAMRAAAQPHRFVGINQAGQVALLQTQGNPDGHVILRGGKAPNYSPADVAQCEKEMEQAGLRPSLMVDCSHGNSNKDYRRQPAVAESVVAQIKDGNRSIIGLMIESNIHEGNQSSEQPRSEMKYGVSVTDACISWEMTDALLREIHQDLNGQLTARVA,3.13 ± 0.21 h,1.05 ± 0.12 h,0.859 ± 0.25 h,3.06 ± 3 h,0.903 ± 0.017 h,2.24 ± 0.07 h,2.79 ± 0.37 h,3.84 ± 0.57 h,0.94 h,1.81 h,1.57 h,3.5 ± 0.6 h
MKKIAFGCDHVGFILKHEIVAHLVERGVEVIDKGTWSSERTDYPHYASQVALAVAGGEVDGGILICGTGVGISIAANKFAGIRAVVCSEPYSAQLSRQHNDTNVLAFGSRVVGLELAKMIVDAWLGAQYEGGRHQQRVEAITAIEQRRN,4.69 ± 0.15 h,,3.77 ± 0.19 h,3.82 ± 0.13 h,3.45 ± 0.1 h,3.05 ± 0.37 h,5.6 ± 0.41 h,9.29 ± 1.4 h,3.725 ± 0.033 h,5.17 ± 1 h,5.32 ± 0.18 h,10.2 ± 0.91 h
MKKILTTPIKAEDLQDIRVGDVIYLTGTLVTCRDVCHRRLIELKRPIPYDLNGKAIFHAGPIVRKNGDKWEMVSVGPTTSMRMESFEREFIEQTGVKLVVGKGGMGPLTEEGCQKFKALHVIFPAGCAVLAATQVEEIEEVHWTELGMPESLWVCRVKEFGPLIVSIDTHGNNLIAENKKLFAERRDPIVEEICEHVHYIK [P0AC35],6.21 h,,,,,,,,,,,
MKTSRLPIAIQQAVMRRLREKLAQANLKLGRNYPEPKLSYTQRGTSAGTAWLESYEIRLNPVLLLENSEAFIEEVVPHELAHLLVWKHFGRVAPHGKEWKWMMENVLGVPARRTHQFELQSVRRNTFPYRCKCQEHQLTVRRHNRVVRGEAVYRCVHCGEQLVAK,4.81 ± 0.12 h,,,,,,,5.52 h,,,,
MSQFFYIHPDNPQQRLINQAVEIVRKGGVIVYPTDSGYALGCKIEDKNAMERICRIRQLPDGHNFTLMCRDLSELSTYSFVDNVAFRLMKNNTPGNYTFILKGTKEVPRRLLQEKRKTIGMRVPSNPIAQALLEALGEPMLSTSLMLPGSEFTESDPEEIKDRLEKQVDLIIHGGYLGQKPTTVIDLTDDTPVVVREGVGDVKPFL [P0AFR4],5.38 ± 0.1 h,,6.202 ± 0.062 h,6.96 ± 1.2 h,6.51 ± 0.8 h,3.1 ± 0.11 h,6.18 ± 1.4 h,12.2 ± 1.1 h,5.38 ± 0.017 h,14.4 ± 1.2 h,4.64 ± 0.17 h,12.9 ± 1.6 h
